This is an account of results in patent US20250361274A1, “PEPTIDE AND PEPTIDE-CONTAINING AGENT” (PEPTIDREAM INC., priority 2022, published 2025).

Numbered stars: 1 amine (or outer) side, 2 acyl side, 3 side chain; on linkers, the order of the positions; unused ones are H or OH. Bridge positions count the residues as written; N and C are the ends. Square brackets hold non-standard residues; d marks the D form. Ends that are not written are not given here. Peptide text beside a SMILES is read from it. KCOpipzaa = N6-(4-(carboxymethyl)piperazine-1-carbonyl)-L-lysine, O=C(NCCCC[C@H](N[*:1])C(=O)[*:2])N1CCN(CC(=O)[*:3])CC1; F3aa = (S)-2-amino-3-[3-(carboxymethyl)phenyl]propanoic acid, O=C([C@H](Cc1cccc(CC(=O)[*:3])c1)N[*:1])[*:2]; 3Pal(6-Ph) = N[C@@H](Cc1ccc(-c2ccccc2)nc1)C(=O)O; Phe(4-COOH) = N[C@@H](Cc1ccc(C(=O)O)cc1)C(=O)O; NMePhe(4-Me) = CN[C@@H](Cc1ccc(C)cc1)C(=O)O; Bip = N[C@@H](Cc1ccc(-c2ccccc2)cc1)C(=O)O; Phe(4-F) = N[C@@H](Cc1ccc(F)cc1)C(=O)O; Ala(4-THP) = N[C@@H](CC1CCOCC1)C(=O)O; cisHyp = O=C(O)[C@@H]1C[C@H](O)CN1; NMeF = CN[C@@H](Cc1ccccc1)C(=O)O; hCit = NC(=O)NCCCC[C@H](N)C(=O)O; 4Pal = N[C@@H](Cc1ccncc1)C(=O)O; Aad = N[C@@H](CCCC(=O)O)C(=O)O; Cha = N[C@@H](CC1CCCCC1)C(=O)O; βAla = NCCC(=O)O

In the first assay the target is T1, BMP4 (Homo sapiens, UniProt P12644).
T1 sequence (P12644 293-408): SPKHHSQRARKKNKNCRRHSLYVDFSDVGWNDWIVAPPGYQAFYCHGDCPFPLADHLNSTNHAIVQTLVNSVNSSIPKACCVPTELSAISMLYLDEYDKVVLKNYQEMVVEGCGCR
The assay is described as follows: BMP4 signal transduction inhibitory activity: SMAD1 phosphorylation by BMP4 stimulus, AlphaLISA SureFire, A549 cells. In kind it is cell-based. Conditions: class of inhibition of SMAD1 phosphorylation by BMP4 stimulus, AlphaLISA, A549 cells. As to the method:
In the present Example, a BMP4 signal transduction inhibitory activity of each peptide consisting of an amino acid sequence set forth in any of SEQ ID NOs: 5 to 240 and 243 to 421 synthesized in Example 10 was verified by phosphorylation of SMAD1 caused by BMP4 stimulus. A549 cells were cultured in MEM (Thermo Fisher Scientific) containing 10% FBS (Thermo Fisher Scientific), 1×Non-essential amino acids (Thermo Fisher Scientific), and 50 μg/mL Gentamicin. After TrypLE (Gibco) was used to peel the cells, seeding was performed in a 96-well plate for adhesion cells so that the number of cells would be 20,000 per well, followed by culturing for 48 hours. After the cells were cultured as described above, the culture medium was replaced with a peptide solution or recombinant Human Noggin Protein (R&D) solution as a positive control diluted to various concentrations in a nutrition-starved culture medium containing 0.1% BSA (Sigma) instead of FBS Thirty minutes after culturing, […], to stimulate it for 60 minutes. The culture medium was removed and the cells were lysed with Lysis Buffer provided with AlphaLISA (registered trademark) SureFire (registered trademark) Ultra SMAD1 (p-[…]/465) Assay kit (PerkinElmer). According to the protocol of the kit, a signal was detected using SpectraMax (registered trademark) Paradigm (registered trademark) multimode microplate reader (Molecular Devices). The obtained signal was analysed using GraphPad Prism (GraphPad Software). The % inhibition was calculated by considering non-stimulation as 100% inhibition and BMP stimulation only as 0% inhibition. Regarding SEQ ID NOs: 5 to 187, the concentrations of the peptides synthesized in the same manner as in Example 2 (shown as 2 in the row of Synthesis) were 0.02 nM, 0.2 nM, and 2 nM, and the concentrations of the peptides synthesized in the same manner as in Example 1 (shown as 1 in the row of Synthesis) were 0.2 nM, 2 nM, and 20 nM. The evaluation results were based on the results of evaluation using the peptides synthesized in the same manner as in Example 2. […] Regarding SEQ ID NOs: 243 to 321, the test was performed at the concentrations described in Table 6. […] Regarding SEQ ID NOs: 322 to 421, the test was performed at the concentrations described in Table 7. […] The evaluation tests of the signal transduction inhibitory activities of SEQ ID NOs: 87, 177, and 181 are as follows. Specifically, the inhibitory activity of BMP4 was evaluated in the same manner as in Example 11 that used A549 cells. Eight concentrations of the peptides were used at a common ratio of 1/3 starting from 2 nM. The inhibitory activity of BMP7 was evaluated in the same manner as in Example 12. Eight concentrations of the peptides were used at a common ratio of 1/3 starting from 100 nM. Note that recombinant Human Noggin Protein (R&D) as a positive control was used at the same concentration as that of the peptide. […] The inhibitory activity of BMP7 was evaluated using eight concentrations of the peptides at a common ratio of 1/3 starting from 1,000 nM in the same manner as in Example 12.
(In general: Bead proximity is the source of the signal in Alpha formats.)
Take “187 ({CH2CO}-E[KCOpipzaa]V[Phe(4-COOH)][Ala(4-THP)]DR[Bip]PYP[Bip][Phe(4-F)][Phe(4-COOH)][4Pal]SC[βAla][dE]; thioether N-17) [compound 187]”: the “aLISA BMP4” value is “C (showed an inhibitory activity of less than 50% in 0.2 nM-addition zone and showed an inhibitory activity of 50% or more in 2 nM-addition zone were defined as B or C)”.

For “169 ({CH2CO}-E[hCit]VY[Ala(4-THP)]DR[Bip]SYV[Bip]Y[Phe(4-COOH)][Phe(4-COOH)]HC[βAla][dE]-OH; thioether N-17; not fully specified) [compound 169]”, the “aLISA BMP4” value is “C (showed an inhibitory activity of less than 50% in 0.2 nM-addition zone and showed an inhibitory activity of 50% or more in 2 nM-addition zone were defined as B or C)”.

Consider “184 ({CH2CO}-ERVY[Ala(4-THP)][KCOpipzaa]R[Bip]PYP[Bip]Y[Phe(4-COOH)][Phe(4-COOH)]SC[βAla][dE]; thioether N-17) [compound 184]”, for which the “aLISA BMP4” value is listed as “A (showed an inhibitory activity of 50% or more in a zone to which the peptide was added to in an amount of 0.2 nM)”.

For “185 ({CH2CO}-E[KCOpipzaa]V[Phe(4-COOH)][Ala(4-THP)]DR[Bip]PY[F3aa][Bip][Phe(4-F)][Phe(4-COOH)][4Pal]SC[βAla][dE]; thioether N-17) [compound 185]”, the “aLISA BMP4” value was “C (showed an inhibitory activity of less than 50% in 0.2 nM-addition zone and showed an inhibitory activity of 50% or more in 2 nM-addition zone were defined as B or C)”.

As to “180 ({CH2CO}-ERV[Phe(4-COOH)][Ala(4-THP)][KCOpipzaa]R[Bip]PY[cisHyp][Bip]Y[Phe(4-COOH)][Phe(4-COOH)]SC[βAla][dE]-OH; thioether N-17; not fully specified) [compound 180]”, the “aLISA BMP4” value is listed as “A (showed an inhibitory activity of 50% or more in a zone to which the peptide was added to in an amount of 0.2 nM)”.

In the case of “164 ({CH2CO}-ERVYVDR[Bip]SYV[Bip]Y[Phe(4-COOH)][Phe(4-COOH)]HC[βAla][dE]-OH; thioether N-17; not fully specified) [compound 164]”, the “aLISA BMP4” value is on record as “A (showed an inhibitory activity of 50% or more in a zone to which the peptide was added to in an amount of 0.2 nM)”.

“183 ({CH2CO}-ERVY[Ala(4-THP)][KCOpipzaa]R[Bip]PY[cisHyp][Bip]Y[Phe(4-COOH)][Phe(4-COOH)]SC[βAla][dE]-OH; thioether N-17; not fully specified) [compound 183]”: the “aLISA BMP4” value was “A (showed an inhibitory activity of 50% or more in a zone to which the peptide was added to in an amount of 0.2 nM)”.

Regarding “182 ({CH2CO}-ERVY[Ala(4-THP)][KCOpipzaa]R[Bip]PY[F3aa][Bip]Y[Phe(4-COOH)][Phe(4-COOH)]SC[βAla][dE]-OH; thioether N-17; not fully specified) [compound 182]”, the “aLISA BMP4” value is on record as “A (showed an inhibitory activity of 50% or more in a zone to which the peptide was added to in an amount of 0.2 nM)”.

As for “178 ({CH2CO}-ERV[Phe(4-COOH)][Ala(4-THP)]DR[Bip]PYV[Bip]Y[Phe(4-COOH)][Phe(4-COOH)]SC[βAla][dE]-OH; thioether N-17; not fully specified) [compound 178]”, the “aLISA BMP4” value was “A (showed an inhibitory activity of 50% or more in a zone to which the peptide was added to in an amount of 0.2 nM)”.

“186 ({CH2CO}-E[KCOpipzaa]V[Phe(4-COOH)][Ala(4-THP)]DR[Bip]PY[cisHyp][Bip][Phe(4-F)][Phe(4-COOH)][4Pal]SC[βAla][dE]; thioether N-17) [compound 186]”: the “aLISA BMP4” value was “A (showed an inhibitory activity of 50% or more in a zone to which the peptide was added to in an amount of 0.2 nM)”.

Take “163 ({CH2CO}-ERVYVDR[Bip]SYY[Bip]Y[Phe(4-COOH)][Phe(4-COOH)]SC[βAla][dE]-OH; thioether N-17; not fully specified) [compound 163]”: the “aLISA BMP4” value is on record as “A (showed an inhibitory activity of 50% or more in a zone to which the peptide was added to in an amount of 0.2 nM)”.

On to “179 ({CH2CO}-ERV[Phe(4-COOH)][Ala(4-THP)][KCOpipzaa]R[Bip]PY[F3aa][Bip]Y[Phe(4-COOH)][Phe(4-COOH)]SC[βAla][dE]-OH; thioether N-17; not fully specified) [compound 179]”, for which the “aLISA BMP4” value is “C (showed an inhibitory activity of less than 50% in 0.2 nM-addition zone and showed an inhibitory activity of 50% or more in 2 nM-addition zone were defined as B or C)”.

The target in the next assay is T2, BMP7 (Homo sapiens, UniProt P18075).
T2 sequence (P18075 293-431): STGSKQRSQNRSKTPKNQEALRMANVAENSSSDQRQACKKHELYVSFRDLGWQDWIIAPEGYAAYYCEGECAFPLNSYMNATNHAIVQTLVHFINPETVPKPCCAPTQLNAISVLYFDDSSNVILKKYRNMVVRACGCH
As to the kind of experiment: BMP7 signal transduction inhibitory activity: SMAD1 phosphorylation by BMP7 stimulus, A549 cells. It counts as cell-based. Conditions: Table 2-2; 277 from 1,000 nM (1/3), 417 from 300 nM (1/4). As to the method:
In the present Example, BMP7 signal transduction inhibitory activity of each peptide consisting of an amino acid sequence set forth in any of SEQ ID NOs: 5 to 240 and 243 to 421 synthesized in Example 10 was verified by phosphorylation of SMAD1 caused by BMP7 stimulus. The evaluation was performed using 10 nM of BMP7 instead of BMP 4. Regarding SEQ ID NOs: 5 to 240, the concentrations of the peptides synthesized in the same manner as in Example 2 (shown as 2 in the row of Synthesis) were 1 nM, 10 nM, and 100 nM, and the concentrations of the peptides synthesized in the same manner as in Example 1 (shown as 1 in the row of Synthesis) were 10 nM, 100 nM, and 1,000 nM, similarly with Example 11. […] Regarding SEQ ID NOs: 243 to 273 and SEQ ID NOs: 299 to 321, the test was performed at the concentrations (10, 100, 1,000 nM) described in Table 6. […] Regarding SEQ ID NOs: 274 to 298, the test was performed at the concentrations (100, 300, 1,000 nM) described in Table 6. […] Regarding SEQ ID NOs: 322 to 370 and SEQ ID NOs: 393 to 421, the test was performed at the concentrations (1, 10, 100 nM). […] Regarding SEQ ID NOs: 371 to 391, the test was performed at the concentrations (10, 30, 90 nM). […] The evaluation tests of the signal transduction inhibitory activities of SEQ ID NOs: 87, 177, and 181 are as follows. Specifically, the inhibitory activity of BMP4 was evaluated in the same manner as in Example 11 that used A549 cells. Eight concentrations of the peptides were used at a common ratio of 1/3 starting from 2 nM. The inhibitory activity of BMP7 was evaluated in the same manner as in Example 12. Eight concentrations of the peptides were used at a common ratio of 1/3 starting from 100 nM. Note that recombinant Human Noggin Protein (R&D) as a positive control was used at the same concentration as that of the peptide. […] The inhibitory activity of BMP7 was evaluated using eight concentrations of the peptides at a common ratio of 1/3 starting from 1,000 nM in the same manner as in Example 12.
The IC50 is the midpoint of a concentration-inhibition curve. Lower therefore signals greater potency. `Cc1ccc(C[C@H]2C(=O)N[C@@H](CC(C)C)C(=O)N3C[C@@H](O)C[C@H]3C(=O)N[C@H](C(=O)NCCC(=O)N[C@H](CCC(=O)O)C(=O)O)CSCC(=O)N[C@@H](Cc3ccc(F)cc3)C(=O)NCC(=O)N(C)[C@@H](Cc3ccccc3)C(=O)NCC(=O)N[C@@H](Cc3ccc(-c4ccccc4)nc3)C(=O)NCC(=O)N[C@@H](CC(=O)O)C(=O)N[C@@H](CCC(=O)O)C(=O)N[C@@H](CC3CCCCC3)C(=O)N[C@@H](CCCC(=O)O)C(=O)N2C)cc1` [Peptide 417] ({CH2CO}-[Phe(4-F)]G[NMeF]G[3Pal(6-Ph)]GDE[Cha][Aad][NMePhe(4-Me)]L[cisHyp]C[βAla][dE]-OH; thioether N-14) returned an IC50 of 15.6 nM.
